Test [1] addresses T1, mouse LTβR extracellular domain fused with an Fc fragment at the C-terminus (mouse, UniProt P50284 31-223).
T1 construct: extracellular domain; Bought; also called mLTβR; not shown: Fc fragment at the C-terminus
Kind of test: ELISA on coated target-Fc. The procedure:
(§1) Nunc MaxiSorp 96-well plates (Thermofisher) were coated with target proteins (1 μg/ml), and then blocked with 2% BSA-PBS buffer for one hour. Serial dilutions of the LIGHT muteins were added with a maximum concentration of 200 ng/ml. The plates were incubated for one hour, washed four times with PBST, and then incubated with mouse anti-His tag antibody (#105327, Sino Biological) for 1 hour. The plates were further incubated with HRP-conjugated goat anti-mouse secondary antibody (#SSA006, Sino Biological) before being washed three times with PBST and treated with TMB substrate (#34029, ThermoFisher). The plates were read at 450 nm on a SpectraMax M5 microplate reader (Molecule Devices). The ELISA results were analyzed using GraphPad Prism 9.0 software and the EC50s (half maximal effective concentration) were summarized in Table 5-1 and Table 5-2.
For orientation: In an ELISA, binding on a coated surface is turned into a signal by an enzyme label.

The target of test [2] is T2, human LTβR extracellular domain fused with an Fc fragment at the C-terminus (human, UniProt P36941 31-227).
T2 construct: extracellular domain; Bought; also called hLTβR; not shown: Fc fragment at the C-terminus
T2 sequence (P36941 31-227): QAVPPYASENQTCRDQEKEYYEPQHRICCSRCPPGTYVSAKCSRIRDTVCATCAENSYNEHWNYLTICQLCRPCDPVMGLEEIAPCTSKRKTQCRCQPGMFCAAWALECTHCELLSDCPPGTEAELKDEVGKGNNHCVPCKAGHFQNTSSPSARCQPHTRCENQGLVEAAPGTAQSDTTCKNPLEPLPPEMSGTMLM
Kind of test: ELISA on coated target-Fc. The protocol: as §1

Test [3] deals with T3, human HVEM extracellular domain fused with an Fc fragment at the C-terminus (human, UniProt Q92956 39-202).
T3 construct: extracellular domain; Bought; also called hHVEM; not shown: Fc fragment at the C-terminus
T3 sequence (looked up): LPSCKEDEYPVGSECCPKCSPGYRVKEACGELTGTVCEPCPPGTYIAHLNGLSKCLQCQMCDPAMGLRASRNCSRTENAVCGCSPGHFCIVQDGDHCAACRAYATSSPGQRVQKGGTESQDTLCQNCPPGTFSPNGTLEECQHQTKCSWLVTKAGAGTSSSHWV
Kind of test: ELISA on coated target-Fc. The protocol: as §1

Test [4] has as its target T4, mouse HVEM extracellular domain fused with an Fc fragment at the C-terminus (mouse, UniProt Q80WM9 39-206, limits assumed).
T4 construct: extracellular domain; Bought; also called mHVEM; not shown: Fc fragment at the C-terminus
T4 sequence (looked up): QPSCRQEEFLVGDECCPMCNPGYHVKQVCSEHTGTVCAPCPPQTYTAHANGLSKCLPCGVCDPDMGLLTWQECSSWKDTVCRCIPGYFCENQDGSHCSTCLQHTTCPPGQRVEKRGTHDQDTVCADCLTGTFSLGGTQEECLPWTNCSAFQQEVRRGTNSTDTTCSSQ
As to the kind of experiment: phage ELISA. The gist of the method:
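Supernatants from fourth-round clones rescued with helper phage were applied to plates coated with 1 μg/ml target for 1 h at room temperature. Bound phage detected with HRP anti-M13 and TMB at OD450; clones were called positive when the target/BSA ratio was >3.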

The target in test [5] is T5, recombinant DcR3 protein (human DcR3 residues 33-300 linked to the N-terminal of rabbit Fc) (human, UniProt O95407 33-300).
T5 construct: range 33-300; Expressed in Expi293F, purified on protein A; not shown: rabbit Fc
T5 sequence (looked up): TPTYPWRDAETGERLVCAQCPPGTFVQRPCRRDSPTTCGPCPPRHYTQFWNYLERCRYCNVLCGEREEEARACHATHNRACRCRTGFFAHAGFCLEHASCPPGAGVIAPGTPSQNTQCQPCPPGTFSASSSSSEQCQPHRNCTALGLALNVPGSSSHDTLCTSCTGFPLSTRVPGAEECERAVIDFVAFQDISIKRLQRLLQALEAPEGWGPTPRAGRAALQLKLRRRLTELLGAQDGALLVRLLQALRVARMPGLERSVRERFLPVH
As to the kind of experiment: ELISA on coated DcR3-rabbit Fc. The procedure: To test whether the muteins can bind to DcR3, the recombinant DcR3 protein was generated by linking human DcR3 residues 33-300 to the N-terminal of rabbit Fc. The recombinant proteins were expressed in Expi293F and affinity-purified using protein A beads, as previously described. Human DcR3 proteins were immobilized onto maxiSorp 96-well ELISA plates (Thermo Fisher) at a concentration of 0.5 μg/mL and then blocked with 2% BSA-PBS buffer for one hour. The LIGHT variants were added to the plates at various dilutions, with a maximum concentration of 10 nM. The plates were incubated for one hour, washed four times with PBST, and then incubated with mouse anti-His tag antibody (#105327, Sino Biological) for 1 hour. The plates were further incubated with HRP-conjugated goat anti-mouse secondary antibody (#SSA006, Sino Biological) before being washed three times with PBST and treated with TMB substrate (#34029, ThermoFisher). The plates were read at 450 nm on a SpectraMax M5 microplate reader (Molecule Devices). The ELISA results were analyzed using GraphPad Prism 9.0 software and the EC50s (half maximal effective concentration) were summarized in Table 5-2.

Test [6] has as its target T1, mouse LTβR extracellular domain fused …. As to the kind of experiment: ELISA on coated target-Fc. The protocol: as §1
This is another data set of the same source.

For test [7], the target named is T2, human LTβR extracellular domain fused …. As to the kind of experiment: ELISA on coated target-Fc. The protocol: as §1
This is another data set of the same source.

Test [8] has as its target T3, human HVEM extracellular domain fused …. As to the kind of experiment: ELISA on coated target-Fc. The procedure: as §1
This is another data set of the same source.

Like-named read-outs stand apart in the source and are kept apart here.

T1 sequence (P50284 31-223): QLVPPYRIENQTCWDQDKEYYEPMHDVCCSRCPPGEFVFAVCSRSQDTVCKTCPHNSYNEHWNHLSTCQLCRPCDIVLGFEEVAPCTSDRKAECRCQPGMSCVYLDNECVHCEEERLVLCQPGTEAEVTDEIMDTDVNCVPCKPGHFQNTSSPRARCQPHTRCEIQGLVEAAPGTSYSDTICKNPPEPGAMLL

B1: LIGHT-31 (ligand)
chain: DGPAGSWEQLIQERRSHEVNPAAHLTGANSSLTGSGGPLLWETQLGLAFLRGLSYHDGALVVTKAGYYYIYSKVQLGGVGCPLGLARSITHGLYKRTPRYPEELELLVSQQSPCGRATSSSRVWWDSSFLGGVVHLEAGEKVVVRVSDERLVRLRDGTRSYFGAFMV
notes: Printed mutations: S160R, T161S, L220S; Soluble protein carries an N-terminal His tag
The term EC50 denotes the concentration giving half of the maximal effect. On to B1, for which the EC50 in test [1] stood at 0.0747 µg/mL; in test [2], 0.0867 µg/mL; in test [3], 0.051 µg/mL. Moreover, the binding result in test [4] was “binds”.

B2: LIGHT-36 (ligand)
chain: DGPAGSWEQLIQERRSHEVNPAAHLTGANSSLTGSGGPLLWETQLGLAFLRGLSYHDGALVVTKAGYYYIYSKVQLGGVGCPLGLASTITHGLYKRTPRYPEELELLVSQQSPCGRATSSSRVWWDSSFLGGVVYLEAGEKVVVRVLDERLVRLRDGTRSYFGAFMV
notes: Printed mutations: H208Y; Soluble protein carries an N-terminal His tag
In the case of B2, the EC50 in test [1] was 0.27 µg/mL; in test [2], 0.19 µg/mL; in test [3], 0.137 µg/mL. In addition, the binding result in test [4] is recorded as “binds”.

B3: LIGHT-39 (ligand)
chain: DGPAGSWEQLIQERRSHEVNPAAHLTGANSSLTGSGGPLLWETQLGLAFLRGLSYHDGALVVTKAGYYYIYSKVQLGGVGCPLGPASTITHGMYKRTPRYPEELELLVSQQSPCGRATSSSRVWWDSSFLGGVVHLEAGEKVVVRVMDERLVRLRDGTRSYFGAFMV
notes: Printed mutations: L158P, L166M, L220M; Soluble protein carries an N-terminal His tag
As for B3, the concentration for a half-maximal effect (EC50) in test [1] was 0.0239 µg/mL; in test [2], 0.0542 µg/mL; in test [3], 0.049 µg/mL. In addition, the binding result in test [4] was “binds”.

B4: LIGHT-60 (ligand)
chain: DGPAGSWEQLIQERRSHEVNPAAHLTGANSSLTGSGGPLLWETQLGLAFLRGLSYHDGALVVTKAGYYYIYSKVQLGGVGCPLGLAGGITHGLYKRTPRYPEELELLVSQQSPCGRATSSSRVWWDSSFLGGVVHLEAGEKVVVRVSDSRLVRLRDGTRSYFGAFMV
notes: Printed mutations: S160G, T161G, L220S, E222S; Soluble protein carries an N-terminal His tag
As to B4, the half-maximal effective concentration (EC50) was 0.311 nM in test [5], 0.63 nM in test [6], 0.919 nM in test [7] and 0.639 nM in test [8].

B5: LIGHT-34 (ligand)
chain: DGPAGSWEQLIQERRSHEVNPAAHLTGANSSLTGSGGPLLWETQLGLAFLRGLSYHDGALVVTKAGYYYIYSKVQLGGVGCPLGLASSITHGLYKRTPRYPEELELLVSQQSPCGRATSSSRVWWDSSFLGGVVHLEAGEKVVVRVSDERLVRLRDGTRSYFGAFMV
notes: Printed mutations: T161S, L220S; Soluble protein carries an N-terminal His tag
For B5, the EC50 was 0.0446 µg/mL in test [1], 0.059 µg/mL in test [2] and 0.0202 µg/mL in test [3]. Besides, in test [4], the binding result is “binds”.

B6: LIGHT-87 (ligand)
chain: DGPAGSWEQLIQERRSHEVNPAAHLTGANSSLTGSGGPLLWETQLGLAFLRGLSYHDGALVVTKAGYYYIYSKVQLRGVGCPLGLARTITHGLYKRTPRYPEELELLVSQQSPCGRATSSSRVWQDSSFLGGVVHLEAGEKVVVRVSDERLVRLLDGTRSYFGAFMV
notes: Printed mutations: G150R, S160R, W198Q, L220S, R228L; Soluble protein carries an N-terminal His tag
B6: the half-maximal effective concentration (EC50) in test [6] was 0.315 nM; in test [7], 0.413 nM; in test [8] it was 6.68 nM.

B7: LIGHT-88 (ligand)
chain: DGPAGSWEQLIQERRSHEVNPTAHLTGANSSLTGSGGPLLWETQLGLAFLRGLSYHDGALVVTKAGYYYIYSKVQLRGVGCPLGLARTITHGLYKRTPRYLEELELLVSQQSPCGRATSSSRVWQDSSFLGGVVHLEAGEKVVVRVSDERLVRLLDGTRSYFGAFMV
notes: Printed mutations: A95T, G150R, S160R, P174L, W198Q, L220S, R228L; Soluble protein carries an N-terminal His tag
Regarding B7, the 50% effective concentration (EC50) in test [6] was found to be 0.262 nM; in test [7], 0.264 nM.

B8: LIGHT-37 (ligand)
chain: DGPAGSWEQLIQERRSHEVNPAAHLTGANSSLTGSGGPLLWETQLGLAFLRGLSYHDGALVVTKAGYYYIYSKVQLGGVGCPLGLASTITHGLYKRTPRYPEELELLVSQQSPCGRTTSSSRVWWDSSYLGGVVHLEAGEEVVVRVLDERLVRLRDGTRSYFGAFMV
notes: Printed mutations: A190T, F202Y, K214E; Soluble protein carries an N-terminal His tag
With B8, the EC50 in test [1] turned out to be 0.0678 µg/mL; in test [2], 0.0434 µg/mL; in test [3], 0.037 µg/mL. In test [4], the binding result is listed as “binds”.

B9: LIGHT-61 (ligand)
chain: DGPAGSWEQLIQERRSHEVNPAAHLTGANSSLTGSGGPLLWETQLGLAFLRGLSYHDGALVVTKAGYYYIYSKVQLGGVGCPLGLAGPITHGLYKRTPRYPEELELLVSQQSPCGRATSSSRVWWDSSFLGGVVHLEAGEKVVVRVSDSRLVRLRDGTRSYFGAFMV
notes: Printed mutations: S160G, T161P, L220S, E222S; Soluble protein carries an N-terminal His tag
For B9, the EC50 in test [5] came to 0.213 nM; in test [6], 0.498 nM; in test [7], 0.482 nM; in test [8] it was 0.46 nM.

B10: LIGHT-42 (ligand)
chain: DGPAGSWEQLIQERRSHEVNPAAHLTGANSSLTGSGGPLLWETQLGLAFLRGLSYHDGALVVTKAGYYYIYSKVQLRGVGCPLGLASTITHGLYKRTPRYPEELELLVSQQSPCGRATSSSRVWWDSSFLGGVVHLEAGEKVVVRVSDERLVRLRDGTRSYFGAFMV
notes: Printed mutations: G150R, L220S; Soluble protein carries an N-terminal His tag
For the molecule B10, the 50% effective concentration (EC50) in test [1] stood at 0.025 µg/mL; in test [2], 0.0639 µg/mL; in test [3], 0.0814 µg/mL. Further, the binding result in test [4] is reported as “binds”.

B11: LIGHT-58 (ligand)
chain: DGPAGSWEQLIQERRSHEVNPAAHLTGANSSLTGSGGPLLWETQLGLAFLRGLSYHDGALVVTKAGYYYIYSKVQLGGVGCPLGLAGGITHGLYKRTPRYPEELELLVSQQSPCGRATSSSRVWWDSSFLGGVVHLEAGEKVVVRVSDERLVRLRDGTRSYFGAFMV
notes: Printed mutations: S160G, T161G, L220S; Soluble protein carries an N-terminal His tag
B11: the EC50 in test [5] turned out to be 0.184 nM; in test [6], 0.273 nM; in test [7] it was 0.309 nM; in test [8], 0.432 nM.

B12: LIGHT-89 (ligand)
chain: DGPAGSWEQLIQERRSHEVNPTAHLTGANSSLTGSGGPLLWETQLGLAFLRGLSYHDGALVVTKAGYYYIYSKVQLRGVGCPLGLARTITHGLYKRTPRYLEELELLVSQQSPCGRATSSSRVWQDSSFLGGVVHLEAGEKVVVRVLDERLVRLLDGTRSYFGAFMV
notes: Soluble protein carries an N-terminal His tag
With B12, the values for the EC50 in test [6] and in test [7] were 0.503 nM and 0.625 nM, respectively.

B13: LIGHT-35 (ligand)
chain: DGPAGSWEQLIQERRSHEVNPAAHLTGANSSLTGSGGPLLWETQLGLAFLRGLSYHDGALVVTKAGYYYIYSKVQLGGVGCPLGLASSITHGLYKRTPRYPEELELLVSQQSPCGRATSSSRVWWDSSFLGGVVHLEAGEKVVVRVSDNRLVRLRDGTRSYFGAFMV
notes: Printed mutations: T161S, L220S, E222N; Soluble protein carries an N-terminal His tag
In the case of B13, the EC50 in test [1] stood at 0.0383 µg/mL; in test [2], 0.0703 µg/mL; in test [3], 0.0416 µg/mL. Moreover, in test [4], the binding result is given as “binds”.

The record behind these values is US20250361288A1 (Gilead, published 2025).
